Test: label from the status in PepcDB records
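Also: failed if final PepcDB status was selected cloned or expressed and not failed if soluble or beyond.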

MLIKLTGGTVYDPANGIDGQVRNLFIRDGRIVHSLNGATPDQEYDLRGKVVMAGAIDMHTHIGGGKVTIARNLLPEDHRADPEPRRGLMRAGCGHAAPSTLTTGYRYAEMGYTAGFEPAVLPINARQAHMEMADVPLLDVGGYVMLGSDDFFLRLLSAGSDQKLINDYVAWTIRSAKAIGIKVVNPGGISAFKFNQRMLDLDEKHVYYGVTPRQILKSLARAVHELGVPHPLHVHGCNLGVPGNVETTLNTISGIEGLPMHLTHIQFHSYGVEGDRKFSSGAARIAEAINANKNITIDVGQILFGQTVTASGDSMRQHANAGHAHPDKWVCMDIECDAGCGVVPFKYRDKNFVNALQWCIGLETFLLIDDPWRVFLTTDHPNGAPFTTYPHLIRLLMDKSFRNDMLATINPEAAALSTLGSIDREYSLYEIAIMTRAGAARLLGLTDRGHLGAGAAADITVYTDQADKEKMFTRPDYVFKDGELVVRNGEVVKVVWGNLHTVQPEFDNGIEARLRDYFDRYHTMKLDNFVINDWEIEGDGRSKILVHPCHQGTRSLEHHHHHH
protein production: failed

MVNFEEMTFENIMESMLDAVPATLDKREGSMIWNSLAPAASQIALLYTWLENAFELVFYDTAPDEFLDRAAAPYGVIRKPAVATQRIIKGIDENDNKIEIPEGSRFFVESENIYFKVTSSTILEQVVECEVAGTKGNADFSNDTILSLDNIYGLAKVEIGDILIPGSDEEELETFRKRFFTKIQKDAFSGNKNHYKLWAEEVLGVGKAKIYPLGYGEGTVKIVITDTNLHPASPTLVEQVRNYIDPLPQKGEGVAPIGAKVFIESAAWKTINISGQLVLKDGKSVNDVIEEITMDINKLFKSITFPEDELTSVKLAVISNIIFSAPSVLDNFNIKLNNEAANIILAENEVPQLGAFSFELILEHHHHHH
protein production: failed

MILKTKLFGKVYQFTSVKEVLAKANEEKSGDKLAGVAANSAEERVAAKVVLSELSLNDLFNNPVVDYDEDEVTRIIIDQVNMRIFESIKHWTVAELREFILSSETTDFDIKRISRGLTSEMIAAVCKLMSNMDLIVGAKKINIEKTANTTIGRPGTFSNRLQPNHPTDNVDGIMASVMEGLSYGAGDALIGLNPVDDSTESVKRILNKFEEFRSEWEIPTQTCVLAHVTTQMEAMRQGAPTGLVFQSIAGSEKGNTAFGLNAEILAEAQDLALHSGQAAGPNVMYFETGQGSELSSEANFGADQVTMEARCYGLAKKFDPYIVNTVVGFIGPEYLYDSKQVIRAGLEDHFMGKLTGISMGCDVCYTNHMKADQNDMENLAMLLATAGCTYIMGIPHGDDVMLNYQTTGFHETATIRETLGLRPIKEFEEWMEKMGLMENGKLTSRAGDASVFIK
protein production: not failed

MQDEYDAADLSLGVSDVTLVGEVLDTEAVRTFDRDDGSEGRVSNLVVGDETGRVRVTLWDDQADTATDLDAGAVVEIVDGYVREREGSLELHVGDTGAVTPVPDADVSFVPLEHHHHHH
protein production: not failed

MTMLLDGGPQFPGLGVGSFGAPRHHEMPNREPAGMGLNPFGDSTHAAAAAAAAAAFKLSPAAAHDLSSGQSSAFTPQGSGYANALGHHHHHHHHHHHTSQVPSYGGAASAAFNSTREFLFRQRSSGLSEAASGGGQHGLFAGSASSLHAPAGIPEPPSYLLFPGLHEQGAGHPSPTGHVDNNQVHLGLRGELFGRADPYRPVASPRTDPYAAGAQFPNYSPMNMNMGVNVAAHHGPGAFFRYMRQPIKQELSCKWIDEAQLSRPKKSCDRTFSTMHELVTHVTMEHVGGPEQNNHVCYWEECPREGKSFKAKYKLVNHIRVHTGEKPFPCPFPGCGKIFARSENLKIHKRTHTGEKPFKCEFEGCDRRFANSSDRKKHMHVHTSDKPYICKVCDKSYTHPSSLRKHMKVHESQGSDSSPAASSGYESSTPPAIASANSKDTTKTPSAVQTSTSHNPGLPPNFNEWYV
protein production: not failed

MICLTSKMMAFLPYFLELKGKRVNIQALINDRVSQAIEAAGAPAGTPALVRQSAKAQFGDYQANGIMGAAKQLGTNPREFAQKVLDVLNLEGIASKTEIAGPGFINIFLSEEFLAAQAEAALADAR
protein production: failed

MVIFNYILVCIIFGTTFLTIKIGIEAGAPPLFSAGIRFFLAGIILMIIFKLKRKEIMPHIFSKRIMYAGFCLTFMTFASLYWSEQYISSGLAAVLSATGPMMILLIQAKRNREKLQKEQLVALVIALIGVIFVSLPGMHQQVSFIWSIACIVLVIGELFYGIGSIRSKEILSDLSNVSPFLINGIQMFYGGILLLIASIIVEQPNVTVLTSWSVQWPILYLIFIGSIGGHGLYYWLLSKTNPVFPSTWLYVSPLIAIIVGYIILGEPLNPTMGMGACLILIGVFLANRSTLRTYFKKGRLLEKEM
protein production: failed

MSSLLPEKWGEALERVHDKVGHFLTRVMPWKKQEHFPERITADTLPAFMQSGGPLLDMHETADELIIRAEVPGLKNDDFSVGIVGRRLTIKGEKNIVRERKGGDGCLISECRYGSFARTLQLPYEIDEKAIAADLKHGVLTIRLPKPEKGRHARYRVPIS
protein production: failed

EDPGDAQVVFARLDAYIRRHLQSEIEVAALAEQAHMSTRSLYALFERQLGESPRQYIRRLRLERIRACLEDPGCRVRNLTELALDFGFAHLGRFAEQYRRQFGELPSETLRRRA
protein production: failed

MKTARPGKLKRQEEQASFISWRFALLCGCILLALVGLIMRTAYLQVINPDKLVREGDMRSLRVQEVPTARGMISDRSGRPLAVSVPVNAVWADPKELIEQGGISLDTRWKALSDALEIPLDQLATRINANPKGRFVYLARQVNPAIGDYIRKLKLPGIHLRQESRRYYPAGQVMAHIIGVTNIDGQGIEGVEKSFDRWLTGQPGERTVRKDHYGRVIEDISSVDSQAAHNLVLSVDERLQALVYRELNNAVAFNKAESGTAVLVDVNTGEVLAMANSPSYNPNNLTGTPKDAMRNRAITDIFEPGSTVKPMVVMTALQHGVVKENSVLNTLPYFVNGHQIKDVARYAELSVTGILQKSSNVGVSKLALAMPSSALVDTYSRFGFGKATNLGLVGESSGLYPKKQRWSDIERATFSFGYGLMVTPLQLARVYATIGSMGVYRPLSITRVDPPVAGERIFPEPLVRTVVHMMESVALPGGGGTKAAIKGYRIAIKTGTAKKVGPDGKYMDRYLAYTAGVAPASNPRFALVVVINDPQAGKYYGGAVSAPVFGAIMGGVLRTMNIEPDALPTGDKSELVINTKEGSGGRS
protein production: not failed

EVLPDGVINVLGASNCPSKGIDRGGVIDLDAAVNSIQRAIEQAESVSNCQIMGVTLAISGQHITALNESGVIPLSGTVVRKEDIDAAIHIAHSIKLPDG
protein production: failed

MLRFMVRSFASLAISSAYSIPIGLSSVTSILDEDTIIERVCYGYLKCNATCSTEIVIVNYSITLNMSDDVVVKLLNDGYFSLDAGAYFGVVPKAIWSRKFQEIDNTVRLATNVLYITESDGTSILVDSGIGNKFDDKFRKIYRVEKQSDIYEYIRLHGDPNSVRMIINSHLHFDHVGHNADFKNAYAYAQADEFKAARYRNYITKANYRLSASQIKNKVEIGGSKRINGFIRVIKTDGHTPGHQVILINAGGRKIMYFGDIVPSTFHLKLPYRTAIDLDPLKTIEFKKNLVKMAIRENYICIFNHDVETPAAILSGDYSDPKYVKVDI
protein production: failed

MQFTDFSLDQRLLQSLKHMGIATPTAIQEQALPIALAGKDLMASSKTGSGKTLAFLLPALQRVISTRALSKRDPRVLILLPTRELAHQVYSQLRLLVANTQYKAISVLGGENFNDQAKALAKEPHFIVATPGRIADHLEQKNLFLNGLELLILDEADRMLDLGFAPQLKAINEAADHKRRQTLMFSATLDHSEINEIAAALLKNPLHVAIGTAHAEHQDISQRIYLCDHLDHKEALLSRLLSDESHKQVIIFTATRADTERLAAKLSAQGFATAALSGELKQAARNQIMDQFARGQQQILVTTDVASRGLDLLNVSLVINFDMPKFAEEYVHRIGRTGRAGAKGDAISLVGPKDWDSFKKVQLFLRKTFEISVIKGLEAKFTGLKDKPKSVATKGVVKANTKGKSKPKPNVVKAAPSRDKRFITGVDVGDAPMRKKPKAQLLQESDDEI
protein production: failed

MLDHFGSDPVFSPEQVLENRGRVAIFIDGSNLFYAALQLGIEIDYSKLLYRLTGGSRLLRSFFYTGVDRANEKQQGFLLWMRRNGYRVIAKDLVQLPDGSKKANLDVEIAVDMMALVGSYDTAVLVSGDGDLAYAVDAVSYRGARVEVVSLRSMTSDSLINVADRYIDLEQIQTDIQKLHRGQFSEPRLMEDRGGGTIELPSHE
protein production: failed

MAMPEIDALLGLSFCLYFFDNKQHKLPHIHVKYGSYELIIAIETGECLEGYLPNKQRKRAENHILEHREQLMVMWNKAVNGENPGKLGDLCLEHHHHHH
protein production: failed

QAIHNDKSLLSPFSELNTDNRTKREESGSTFKEQKGGEFSKLLKQSINELNNTQEQSDKALADMATGQIKDLHQAAIAIGKAETSMKLMLEVRNKAISAYKELLRTQI
protein production: failed

MITYHSNALQSERQMYVWTPPGYTGMGEPLPVLYFYHGFGDTGRSAIDQGRIPQIMDNLLAEGKIKPMLVVIPDTETDAKGIIPEDFVPQERRKVFYPLNAKAADRELMNDIIPLISKRFSVRKDADGRALAGLSQGGYQALVSGMNHLESFGWLATFSGVTTTTVPDEGVAARLNDPAAINQQLRNFTVVVGDKDVVTGKDIAGLKTELEQKKIKFDYQEYPGLNHEMDVWRPAYAAFVQKFKIRHLEHHHHHH
protein production: failed

MSTHVTFDYSKALSFIGEHEITYLRDAVKVTHHAIHEKTGAGNDFLGWVDLPLQYDKEEFARIQKCAEKIKNDSDILLVVGIGGSYLGARAAIEMLNHSFYNTLSKEQRKTPQVLFVGQNISSTYMKDLMDVLEGKDFSINVISKSGTTTEPALAFRIFRKLLEEKYGKEEARKRIYATTDKARGALKTLADNEGYETFVIPDDVGGRFSVLTPVGLLPIAVSGLNIEEMMKGAAAGRDDFGTSELEENPAYQYAVVRNALYNKGKTIEMLINYEPALQYFAEWWKQLFGESEGKDQKGIFPSSANFSTDLHSLGQYVQEGRRDLFETVLKVGKSTHELTIESEENDLDGLNYLAGETVDFVNTKAYEGTLLAHSDGGVPNLIVNIPELNEYTFGYLVYFFEKACAMSGYLLGVNPFDQPGVEAYKKNMFALLGKPGFEELKAELEERLK
protein production: not failed

MESLLRADQTLIPGAMCSRRVWTHSELALPSVSVTELDLVRGLLQALQGLSSPFLFWDQTGQTFRAKSHIRVSHLSHSSLHVLLAGFLYPATCLKLVESIVAAINTSLRSPPTLMAFSDSVSAWLEANIALKEEVMIDNSDITVTPTLLGLTSAEYLLQVVHGAIPHTFFDSNSTISAAEIAVHVLDYLYKKLDEVCLVQGGEVEGFHMLLQMFAGSLLPYIEGLDSWLFEGTLDDPCEELFFTANQSVSVDDAEFWEKSYQLMKVPNSKSNVTSLNEKKVMSGHDANSSLASDKDKEQNTRVLCPLFIKDICKSIVSAGKSLQLMQHIPSTSSENSGKTQFHGRNGYGKSSVGSLLTKMSSCSSTADLSLSEVFCLTLAGLIGHGDHVSRYLWKDEADEWEISPTLASYISGELVNDMDNKDLPVLTCSERMWYKLLVGAVQEKRAMEAKSELQSACYATGVKDGNSGLTAQKALQGLFCNENLVVSVSKMDLERNRNAWNVLNLSQNYCLPSLNDESLLSAVFEESGMADAGLSGTNYKFGFQFGRSEYISSQDDTNLLETLFPFPTLLPSFQAEPMDTRLPVVIMQECFTIYIRRQVDYIGKVILSKLMNDWKLMHELAVLRAIYLLGSGDLLQHFLTVIFDRLGKGESSNDDFELNIILQESIRNSADAMLLSSPDSLVVSISREDRDKDDKGDIIPLSSTRKSRVNSFGIDCLESLKFTYKVPWPLELIANSEAIKKYNQVKRAKYVLDKARRWMWKGKGSATKIRKHHWLLEQKLLNFVDAFHQYVMDRVYHTAWRELCEAMVKAGSLDEVIYVHETYLLSIQRQCFVVQEKLWAIIASRINMILGLALEFYSIQQTLSSGGAVSAIKARCEMEIDRIEKQFEDCIAFLLRVLSSKLNVGHFPHLADLVTRINYNYHYMSDTGSLMTTSGAETNSSRPWTAKSDV
protein production: failed

MEYSRDSAEMMMETKRNVYSLEDNKIKRHKSSDLSFSSKERKDKLAERISALQQLVSPYGKTDTASVLLEGMQYIQFLQEQVKVLSAPYLQATPSTTEEEVEEYSLRSKGLCLVPLEYTSEVAQTNGADIWAPVKTPTSSHAFNLSSSNSPFQ
protein production: failed
